Consider 5 compounds from patent publication US20220145343A1 (priority 2019, published 2022).

Read-outs that look alike come from different tables or passages of the source.

In series [1] the test system is CC(=O)N[C@H]1[C@H]([C@H](O)[C@H](O)CO)O[C@@](OCCCNC(=O)OCc2ccccc2)(C(=O)O)C[C@@H]1O[C@H]1O[C@H](CO[C@]2(C(=O)O)C[C@H](O)[C@@H](NC(C)=O)[C@H]([C@H](O)[C@H](O)CO)O2)[C@H](O)[C@H](O)[C@H]1O. In words: purified protein, by the assay type. The settings on record: other: apparent, varying acceptor, 2 mM UDP-Gal, pH 6.5, 30° C.
The subject of series [2] is CC(=O)N[C@H]1[C@H]([C@H](O)[C@H](O)CO)O[C@@](OCCCNC(=O)OCc2ccccc2)(C(=O)O)C[C@@H]1O. In words: purified protein, by the assay type. The settings on record: other: apparent, varying acceptor, 2 mM UDP-Gal, pH 6.5, 30° C.
In series [3] the test system is CC(=O)N[C@H]1[C@H]([C@H](O)[C@H](O)CO)O[C@@](OCCCNC(=O)OCc2ccccc2)(C(=O)O)C[C@@H]1O[C@H]1O[C@H](CO[C@]2(C(=O)O)C[C@H](O[C@H]3O[C@H](CO[C@]4(C(=O)O)C[C@H](O)[C@@H](NC(C)=O)[C@H]([C@H](O)[C@H](O)CO)O4)[C@H](O)[C@H](O)[C@H]3O)[C@@H](NC(C)=O)[C@H]([C@H](O)[C@H](O)CO)O2)[C@H](O)[C@H](O)[C@H]1O. In words: purified protein, by the assay type. The settings on record: other: apparent, varying acceptor, 2 mM UDP-Gal, pH 6.5, 30° C.

In series [4] the target is NmSiaDW α2-6-sialyltransferase activity (Neisseria meningitidis, UniProt O33390). In words: Enzyme kinetics by varying CMP-Neu5Ac concentrations, fixed acceptor G2 or G10. Format: biochemical. Conditions: apparent, fixed acceptor 1 mM (row names the acceptor). The method, then:
Enzyme kinetics by varying donor concentrations. For varying UDP-Gal concentrations, reactions were performed in duplicate at 30° C. for 10 minutes in the presence of MES buffer (100 mM, pH 6.5), MgCl2 (10 mM), S3 or S9 (2 mM), UDP-Gal (0.1, 0.2, 0.5, 1.0, 2.0, 5.0 and 10.0 mM), and NmSiaDW (0.025 μM for S3, 0.031 μM for S9) in a total volume of 20 μL. For varying CMP-Neu5Ac concentrations, reactions were performed in duplicate at 30° C. for 10 minutes in the presence of Tris-HCl buffer (100 mM, pH 8.0), MgCl2 (10 mM), G2 or G10 (1 mM), CMP-Neu5Ac (0.2, 0.5, 1.0, 2.0, 5.0 and 10.0 mM), and NmSiaDW (0.025 μM for G2, 0.062 μM for G10) in a total volume of 20 μL. Data analyses were carried out as described above.
NmSiaDW kinetics studies where the concentrations of the donors were also conducted, using a fixed concentration of a representative short or long acceptor substrate. S3 or S9 was used as the acceptor substrate for varying the concentration of UDP-Gal and G2 or G10 was used as the acceptor substrate for varying the concentration of CMP-Neu5Ac. […] The averages of nonlinear regression standard errors from technical duplicates are shown.

Series [5] has as its target NmSiaDW galactosyltransferase activity (Neisseria meningitidis, UniProt O33390). Conditions: for increase of overall catalytic efficiency (kcat/KM) relative to monosaccharide S1: monosaccharide to nonasaccharide.
For series [6], the target named is NmSiaDW α1-4-galactosyltransferase activity (Neisseria meningitidis, UniProt O33390). It counts as biochemical. Conditions: apparent; varying UDP-Gal, fixed acceptor 2 mM (row names the acceptor).
Sequence of NmSiaDW α1-4-galactosyltransferase activity (O33390 1-1037): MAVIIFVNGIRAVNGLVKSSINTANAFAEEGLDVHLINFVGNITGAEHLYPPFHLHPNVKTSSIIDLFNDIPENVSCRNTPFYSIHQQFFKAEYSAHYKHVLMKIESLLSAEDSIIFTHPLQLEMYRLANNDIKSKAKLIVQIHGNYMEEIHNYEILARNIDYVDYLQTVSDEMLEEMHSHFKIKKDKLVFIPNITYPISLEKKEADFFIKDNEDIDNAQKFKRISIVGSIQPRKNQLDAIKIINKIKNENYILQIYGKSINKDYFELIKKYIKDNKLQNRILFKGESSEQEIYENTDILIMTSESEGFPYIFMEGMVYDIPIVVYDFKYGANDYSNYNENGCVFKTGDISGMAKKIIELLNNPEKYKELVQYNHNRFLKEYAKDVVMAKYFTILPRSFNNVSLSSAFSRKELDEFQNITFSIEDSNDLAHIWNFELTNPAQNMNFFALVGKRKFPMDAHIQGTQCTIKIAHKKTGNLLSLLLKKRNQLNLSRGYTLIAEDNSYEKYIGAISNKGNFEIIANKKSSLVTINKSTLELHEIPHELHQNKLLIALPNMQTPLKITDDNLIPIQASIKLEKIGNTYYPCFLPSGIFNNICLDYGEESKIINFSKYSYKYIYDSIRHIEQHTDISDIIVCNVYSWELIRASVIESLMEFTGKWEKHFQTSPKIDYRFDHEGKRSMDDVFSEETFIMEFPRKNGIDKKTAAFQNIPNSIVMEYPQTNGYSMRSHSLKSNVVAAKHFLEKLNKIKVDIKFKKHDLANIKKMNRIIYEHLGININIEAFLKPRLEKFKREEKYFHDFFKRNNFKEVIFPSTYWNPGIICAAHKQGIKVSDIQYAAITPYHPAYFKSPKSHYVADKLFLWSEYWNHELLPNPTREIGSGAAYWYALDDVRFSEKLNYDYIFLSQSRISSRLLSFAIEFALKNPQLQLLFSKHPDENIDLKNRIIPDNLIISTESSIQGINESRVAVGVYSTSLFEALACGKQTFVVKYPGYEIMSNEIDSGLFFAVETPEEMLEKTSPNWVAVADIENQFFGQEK
Series [7] deals with NmSiaDW sialyltransferase activity (Neisseria meningitidis, UniProt O33390). Conditions: apparent; varying acceptor, 10 mM CMP-Neu5Ac, pH 8.0, 30° C.
Sequence of NmSiaDW sialyltransferase activity (O33390 1-1037): as above
In series [8] the test system is CC(=O)N[C@H]1[C@H]([C@H](O)[C@H](O)CO)O[C@@](OC[C@H]2O[C@H](O[C@H]3C[C@](OCCCNC(=O)OCc4ccccc4)(C(=O)O)O[C@@H]([C@H](O)[C@H](O)CO)[C@@H]3NC(C)=O)[C@H](O)[C@@H](O)[C@H]2O)(C(=O)O)C[C@@H]1O[C@H]1O[C@H](CO)[C@H](O)[C@H](O)[C@H]1O. In words: purified protein, by the assay type. The settings on record: other: apparent, varying acceptor, 10 mM CMP-Neu5Ac, pH 8.0, 30° C.
Series [9] relates to CC(=O)N[C@H]1[C@H]([C@H](O)[C@H](O)CO)O[C@@](OCCCNC(=O)OCc2ccccc2)(C(=O)O)C[C@@H]1O[C@H]1O[C@H](CO)[C@H](O)[C@H](O)[C@H]1O. In words: purified protein, by the assay type. Conditions: other: apparent, varying acceptor, 10 mM CMP-Neu5Ac, pH 8.0, 30° C.
In series [10] the test system is CC(=O)N[C@H]1[C@H]([C@H](O)[C@H](O)CO)O[C@@](OC[C@H]2O[C@H](O[C@H]3C[C@](OC[C@H]4O[C@H](O[C@H]5C[C@](OC[C@H]6O[C@H](O[C@H]7C[C@](OC[C@H]8O[C@H](O[C@H]9C[C@](OCCCNC(=O)OCc%10ccccc%10)(C(=O)O)O[C@@H]([C@H](O)[C@H](O)CO)[C@@H]9NC(C)=O)[C@H](O)[C@@H](O)[C@H]8O)(C(=O)O)O[C@@H]([C@H](O)[C@H](O)CO)[C@@H]7NC(C)=O)[C@H](O)[C@@H](O)[C@H]6O)(C(=O)O)O[C@@H]([C@H](O)[C@H](O)CO)[C@@H]5NC(C)=O)[C@H](O)[C@@H](O)[C@H]4O)(C(=O)O)O[C@@H]([C@H](O)[C@H](O)CO)[C@@H]3NC(C)=O)[C@H](O)[C@@H](O)[C@H]2O)(C(=O)O)C[C@@H]1O[C@H]1O[C@H](CO)[C@H](O)[C@H](O)[C@H]1O. Description: purified protein, by the assay type. Conditions: other: apparent, varying acceptor, 10 mM CMP-Neu5Ac, pH 8.0, 30° C.

For series [11], the system named is CC(=O)N[C@H]1[C@H]([C@H](O)[C@H](O)CO)O[C@@](OC[C@H]2O[C@H](O[C@H]3C[C@](OC[C@H]4O[C@H](O[C@H]5C[C@](OCCCNC(=O)OCc6ccccc6)(C(=O)O)O[C@@H]([C@H](O)[C@H](O)CO)[C@@H]5NC(C)=O)[C@H](O)[C@@H](O)[C@H]4O)(C(=O)O)O[C@@H]([C@H](O)[C@H](O)CO)[C@@H]3NC(C)=O)[C@H](O)[C@@H](O)[C@H]2O)(C(=O)O)C[C@@H]1O[C@H]1O[C@H](CO)[C@H](O)[C@H](O)[C@H]1O. In words: purified protein, by the assay type. Conditions: other: apparent, varying acceptor, 10 mM CMP-Neu5Ac, pH 8.0, 30° C.

For series [12], the system named is CC(=O)N[C@H]1[C@H]([C@H](O)[C@H](O)CO)O[C@@](OC[C@H]2O[C@H](O[C@H]3C[C@](OC[C@H]4O[C@H](O[C@H]5C[C@](OC[C@H]6O[C@H](O[C@H]7C[C@](OCCCNC(=O)OCc8ccccc8)(C(=O)O)O[C@@H]([C@H](O)[C@H](O)CO)[C@@H]7NC(C)=O)[C@H](O)[C@@H](O)[C@H]6O)(C(=O)O)O[C@@H]([C@H](O)[C@H](O)CO)[C@@H]5NC(C)=O)[C@H](O)[C@@H](O)[C@H]4O)(C(=O)O)O[C@@H]([C@H](O)[C@H](O)CO)[C@@H]3NC(C)=O)[C@H](O)[C@@H](O)[C@H]2O)(C(=O)O)C[C@@H]1O[C@H]1O[C@H](CO)[C@H](O)[C@H](O)[C@H]1O. In words: purified protein, by the assay type. The settings on record: other: apparent, varying acceptor, 10 mM CMP-Neu5Ac, pH 8.0, 30° C.

Where [13] appears, read: apparent, varying acceptor, 2 mM UDP-Gal, pH 6.5, 30° C.

Sequence of NmSiaDW galactosyltransferase activity (O33390 1-1037): as above
Sequence of NmSiaDW α2-6-sialyltransferase activity (O33390 1-1037): as above

“NmSiaDW galactosyltransferase activity (Neisseria meningitidis)”: the Km in series [1] was found to be 890 ± 100 µM; in series [3], 100 ± 20 µM. For the same compound, the kcat in [1] was 8.8 ± 0.4 s⁻¹; in series [3], 5.3 ± 0.2 s⁻¹. In addition, the kcat/Km worked out at 10000 M⁻¹ s⁻¹ in [1], 47 M⁻¹ s⁻¹ in series [2] and 51000 M⁻¹ s⁻¹ in [3].

As to `CC(=O)N[C@H]1[C@H]([C@H](O)[C@H](O)CO)O[C@@](OCCCNC(=O)OCc2ccccc2)(C(=O)O)C[C@@H]1O[C@H]1O[C@H](CO)[C@H](O)[C@H](O)[C@H]1O` [G2, Galα1-4Neu5AcαProNHCbz], the catalytic constant (kcat) in series [4] turned out to be 7.1 ± 0.2 s⁻¹.

With `CC(=O)N[C@H]1[C@H]([C@H](O)[C@H](O)CO)O[C@@](OCCCNC(=O)OCc2ccccc2)(C(=O)O)C[C@@H]1O[C@H]1O[C@H](CO[C@]2(C(=O)O)C[C@H](O[C@H]3O[C@H](CO[C@]4(C(=O)O)C[C@H](O[C@H]5O[C@H](CO[C@]6(C(=O)O)C[C@H](O[C@H]7O[C@H](CO[C@]8(C(=O)O)C[C@H](O)[C@@H](NC(C)=O)[C@H]([C@H](O)[C@H](O)CO)O8)[C@H](O)[C@H](O)[C@H]7O)[C@@H](NC(C)=O)[C@H]([C@H](O)[C@H](O)CO)O6)[C@H](O)[C@H](O)[C@H]5O)[C@@H](NC(C)=O)[C@H]([C@H](O)[C@H](O)CO)O4)[C@H](O)[C@H](O)[C@H]3O)[C@@H](NC(C)=O)[C@H]([C@H](O)[C@H](O)CO)O2)[C@H](O)[C@H](O)[C@H]1O` [S9, Neu5Acα2(-6Galα1-4Neu5Acα2)4-ProNHCbz], in [5] (setting [13]), the Km was less than 50 µM. Moreover, the kcat worked out at 5.1 ± 0.3 s⁻¹ in series [5] (setting [13]) and 9.0 ± 0.2 s⁻¹ in [6]. Besides, in series [5] (galactosyltransferase activity, 2 mM UDP-Gal), the “acceptor concentration above which substrate inhibition was observed” value is given as “higher than 2 mM”. The “increase of overall catalytic efficiency (kcat/KM) relative to monosaccharide S1” value is on record as “more than 2100 fold” in [5] (galactosyltransferase activity) and “More than 2300 fold” in [5] (galactosyltransferase activity, listed as nonasaccharide).

For `CC(=O)N[C@H]1[C@H]([C@H](O)[C@H](O)CO)O[C@@](OC[C@H]2O[C@H](O[C@H]3C[C@](OC[C@H]4O[C@H](O[C@H]5C[C@](OC[C@H]6O[C@H](O[C@H]7C[C@](OC[C@H]8O[C@H](O[C@H]9C[C@](OCCCNC(=O)OCc%10ccccc%10)(C(=O)O)O[C@@H]([C@H](O)[C@H](O)CO)[C@@H]9NC(C)=O)[C@H](O)[C@@H](O)[C@H]8O)(C(=O)O)O[C@@H]([C@H](O)[C@H](O)CO)[C@@H]7NC(C)=O)[C@H](O)[C@@H](O)[C@H]6O)(C(=O)O)O[C@@H]([C@H](O)[C@H](O)CO)[C@@H]5NC(C)=O)[C@H](O)[C@@H](O)[C@H]4O)(C(=O)O)O[C@@H]([C@H](O)[C@H](O)CO)[C@@H]3NC(C)=O)[C@H](O)[C@@H](O)[C@H]2O)(C(=O)O)C[C@@H]1O[C@H]1O[C@H](CO)[C@H](O)[C@H](O)[C@H]1O` [G10, Galα1(-4Neu5Acα2-6Galα1)4-4Neu5AcαProNHCbz], the kcat is 7.03 ± 0.39 s⁻¹ in [7] and 6.1 ± 0.2 s⁻¹ in [4].

For the compound “NmSiaDW sialyltransferase activity (Neisseria meningitidis)”, the results for the Km in series [8] and in [9] were 240 ± 40 µM and 180 ± 40 µM, respectively. The kcat in series [8] is 23.1 ± 1.1 s⁻¹; in series [9], 9.76 ± 0.55 s⁻¹; in [10], 7.03 to 11.9 s⁻¹; in [11] it was 7.03 to 11.9 s⁻¹; in [12], 7.03 to 11.9 s⁻¹. For the same compound, the figures for the kcat/Km in [8] and in series [9] were 97000 M⁻¹ s⁻¹ and 55000 M⁻¹ s⁻¹, respectively.
